First the molecules themselves.
B1: XPA23 light chain T52Q (Fab, V domains shown)
VH: EVQLLESGGGLVQPGGSLRLSCAASGFTFSKYFMFWVRQAPGKGLEWVSVISPSGGMTRYADSVKGRFTISRDNSKNTLYLQMNSLRAEDTAVYYCARVGYGGNSDYWGQGTLVTVSS
VL: DIQMTQSPSSVSASVGDRLTIICRASQDINRWLAWYQQTPGNAPKLLIHSAQSLQSGVPSRFSGSGSGTDFTLTINSLQPEDFATYYCQQADSFPLTFGGGTKVEIK
B2: XPA23 light chain W32A (Fab, V domains shown)
VH: EVQLLESGGGLVQPGGSLRLSCAASGFTFSKYFMFWVRQAPGKGLEWVSVISPSGGMTRYADSVKGRFTISRDNSKNTLYLQMNSLRAEDTAVYYCARVGYGGNSDYWGQGTLVTVSS
VL: DIQMTQSPSSVSASVGDRLTIICRASQDINRALAWYQQTPGNAPKLLIHSATSLQSGVPSRFSGSGSGTDFTLTINSLQPEDFATYYCQQADSFPLTFGGGTKVEIK
B3: XPA23 light chain T52Y (Fab, V domains shown)
VH: EVQLLESGGGLVQPGGSLRLSCAASGFTFSKYFMFWVRQAPGKGLEWVSVISPSGGMTRYADSVKGRFTISRDNSKNTLYLQMNSLRAEDTAVYYCARVGYGGNSDYWGQGTLVTVSS
VL: DIQMTQSPSSVSASVGDRLTIICRASQDINRWLAWYQQTPGNAPKLLIHSAYSLQSGVPSRFSGSGSGTDFTLTINSLQPEDFATYYCQQADSFPLTFGGGTKVEIK
B4: XPA23 light chain W32P (Fab, V domains shown)
VH: EVQLLESGGGLVQPGGSLRLSCAASGFTFSKYFMFWVRQAPGKGLEWVSVISPSGGMTRYADSVKGRFTISRDNSKNTLYLQMNSLRAEDTAVYYCARVGYGGNSDYWGQGTLVTVSS
VL: DIQMTQSPSSVSASVGDRLTIICRASQDINRPLAWYQQTPGNAPKLLIHSATSLQSGVPSRFSGSGSGTDFTLTINSLQPEDFATYYCQQADSFPLTFGGGTKVEIK
B5: XPA23 light chain W32N (Fab, V domains shown)
VH: EVQLLESGGGLVQPGGSLRLSCAASGFTFSKYFMFWVRQAPGKGLEWVSVISPSGGMTRYADSVKGRFTISRDNSKNTLYLQMNSLRAEDTAVYYCARVGYGGNSDYWGQGTLVTVSS
VL: DIQMTQSPSSVSASVGDRLTIICRASQDINRNLAWYQQTPGNAPKLLIHSATSLQSGVPSRFSGSGSGTDFTLTINSLQPEDFATYYCQQADSFPLTFGGGTKVEIK
B6: XPA23 light chain W32L (Fab, V domains shown)
VH: EVQLLESGGGLVQPGGSLRLSCAASGFTFSKYFMFWVRQAPGKGLEWVSVISPSGGMTRYADSVKGRFTISRDNSKNTLYLQMNSLRAEDTAVYYCARVGYGGNSDYWGQGTLVTVSS
VL: DIQMTQSPSSVSASVGDRLTIICRASQDINRLLAWYQQTPGNAPKLLIHSATSLQSGVPSRFSGSGSGTDFTLTINSLQPEDFATYYCQQADSFPLTFGGGTKVEIK
B7: XPA23 light chain W32F (Fab, V domains shown)
VH: EVQLLESGGGLVQPGGSLRLSCAASGFTFSKYFMFWVRQAPGKGLEWVSVISPSGGMTRYADSVKGRFTISRDNSKNTLYLQMNSLRAEDTAVYYCARVGYGGNSDYWGQGTLVTVSS
VL: DIQMTQSPSSVSASVGDRLTIICRASQDINRFLAWYQQTPGNAPKLLIHSATSLQSGVPSRFSGSGSGTDFTLTINSLQPEDFATYYCQQADSFPLTFGGGTKVEIK
B8: XPA23 light chain W32S (Fab, V domains shown)
VH: EVQLLESGGGLVQPGGSLRLSCAASGFTFSKYFMFWVRQAPGKGLEWVSVISPSGGMTRYADSVKGRFTISRDNSKNTLYLQMNSLRAEDTAVYYCARVGYGGNSDYWGQGTLVTVSS
VL: DIQMTQSPSSVSASVGDRLTIICRASQDINRSLAWYQQTPGNAPKLLIHSATSLQSGVPSRFSGSGSGTDFTLTINSLQPEDFATYYCQQADSFPLTFGGGTKVEIK
B9: XPA23 light chain W32T (Fab, V domains shown)
VH: EVQLLESGGGLVQPGGSLRLSCAASGFTFSKYFMFWVRQAPGKGLEWVSVISPSGGMTRYADSVKGRFTISRDNSKNTLYLQMNSLRAEDTAVYYCARVGYGGNSDYWGQGTLVTVSS
VL: DIQMTQSPSSVSASVGDRLTIICRASQDINRTLAWYQQTPGNAPKLLIHSATSLQSGVPSRFSGSGSGTDFTLTINSLQPEDFATYYCQQADSFPLTFGGGTKVEIK
B10: XPA23 light chain T52V (Fab, V domains shown)
VH: EVQLLESGGGLVQPGGSLRLSCAASGFTFSKYFMFWVRQAPGKGLEWVSVISPSGGMTRYADSVKGRFTISRDNSKNTLYLQMNSLRAEDTAVYYCARVGYGGNSDYWGQGTLVTVSS
VL: DIQMTQSPSSVSASVGDRLTIICRASQDINRWLAWYQQTPGNAPKLLIHSAVSLQSGVPSRFSGSGSGTDFTLTINSLQPEDFATYYCQQADSFPLTFGGGTKVEIK
B11: XPA23 light chain T52W (Fab, V domains shown)
VH: EVQLLESGGGLVQPGGSLRLSCAASGFTFSKYFMFWVRQAPGKGLEWVSVISPSGGMTRYADSVKGRFTISRDNSKNTLYLQMNSLRAEDTAVYYCARVGYGGNSDYWGQGTLVTVSS
VL: DIQMTQSPSSVSASVGDRLTIICRASQDINRWLAWYQQTPGNAPKLLIHSAWSLQSGVPSRFSGSGSGTDFTLTINSLQPEDFATYYCQQADSFPLTFGGGTKVEIK
B12: XPA23 light chain T52R (Fab, V domains shown)
VH: EVQLLESGGGLVQPGGSLRLSCAASGFTFSKYFMFWVRQAPGKGLEWVSVISPSGGMTRYADSVKGRFTISRDNSKNTLYLQMNSLRAEDTAVYYCARVGYGGNSDYWGQGTLVTVSS
VL: DIQMTQSPSSVSASVGDRLTIICRASQDINRWLAWYQQTPGNAPKLLIHSARSLQSGVPSRFSGSGSGTDFTLTINSLQPEDFATYYCQQADSFPLTFGGGTKVEIK
B13: XPA23 light chain W32H (Fab, V domains shown)
VH: EVQLLESGGGLVQPGGSLRLSCAASGFTFSKYFMFWVRQAPGKGLEWVSVISPSGGMTRYADSVKGRFTISRDNSKNTLYLQMNSLRAEDTAVYYCARVGYGGNSDYWGQGTLVTVSS
VL: DIQMTQSPSSVSASVGDRLTIICRASQDINRHLAWYQQTPGNAPKLLIHSATSLQSGVPSRFSGSGSGTDFTLTINSLQPEDFATYYCQQADSFPLTFGGGTKVEIK
B14: XPA23 light chain W32I (Fab, V domains shown)
VH: EVQLLESGGGLVQPGGSLRLSCAASGFTFSKYFMFWVRQAPGKGLEWVSVISPSGGMTRYADSVKGRFTISRDNSKNTLYLQMNSLRAEDTAVYYCARVGYGGNSDYWGQGTLVTVSS
VL: DIQMTQSPSSVSASVGDRLTIICRASQDINRILAWYQQTPGNAPKLLIHSATSLQSGVPSRFSGSGSGTDFTLTINSLQPEDFATYYCQQADSFPLTFGGGTKVEIK
B15: XPA23 light chain W32Q (Fab, V domains shown)
VH: EVQLLESGGGLVQPGGSLRLSCAASGFTFSKYFMFWVRQAPGKGLEWVSVISPSGGMTRYADSVKGRFTISRDNSKNTLYLQMNSLRAEDTAVYYCARVGYGGNSDYWGQGTLVTVSS
VL: DIQMTQSPSSVSASVGDRLTIICRASQDINRQLAWYQQTPGNAPKLLIHSATSLQSGVPSRFSGSGSGTDFTLTINSLQPEDFATYYCQQADSFPLTFGGGTKVEIK
B16: XPA23 light chain W32K (Fab, V domains shown)
VH: EVQLLESGGGLVQPGGSLRLSCAASGFTFSKYFMFWVRQAPGKGLEWVSVISPSGGMTRYADSVKGRFTISRDNSKNTLYLQMNSLRAEDTAVYYCARVGYGGNSDYWGQGTLVTVSS
VL: DIQMTQSPSSVSASVGDRLTIICRASQDINRKLAWYQQTPGNAPKLLIHSATSLQSGVPSRFSGSGSGTDFTLTINSLQPEDFATYYCQQADSFPLTFGGGTKVEIK
B17: XPA23 light chain W32R (Fab, V domains shown)
VH: EVQLLESGGGLVQPGGSLRLSCAASGFTFSKYFMFWVRQAPGKGLEWVSVISPSGGMTRYADSVKGRFTISRDNSKNTLYLQMNSLRAEDTAVYYCARVGYGGNSDYWGQGTLVTVSS
VL: DIQMTQSPSSVSASVGDRLTIICRASQDINRRLAWYQQTPGNAPKLLIHSATSLQSGVPSRFSGSGSGTDFTLTINSLQPEDFATYYCQQADSFPLTFGGGTKVEIK
B18: XPA23 light chain W32D (Fab, V domains shown)
VH: EVQLLESGGGLVQPGGSLRLSCAASGFTFSKYFMFWVRQAPGKGLEWVSVISPSGGMTRYADSVKGRFTISRDNSKNTLYLQMNSLRAEDTAVYYCARVGYGGNSDYWGQGTLVTVSS
VL: DIQMTQSPSSVSASVGDRLTIICRASQDINRDLAWYQQTPGNAPKLLIHSATSLQSGVPSRFSGSGSGTDFTLTINSLQPEDFATYYCQQADSFPLTFGGGTKVEIK
B19: XPA23 light chain W32G (Fab, V domains shown)
VH: EVQLLESGGGLVQPGGSLRLSCAASGFTFSKYFMFWVRQAPGKGLEWVSVISPSGGMTRYADSVKGRFTISRDNSKNTLYLQMNSLRAEDTAVYYCARVGYGGNSDYWGQGTLVTVSS
VL: DIQMTQSPSSVSASVGDRLTIICRASQDINRGLAWYQQTPGNAPKLLIHSATSLQSGVPSRFSGSGSGTDFTLTINSLQPEDFATYYCQQADSFPLTFGGGTKVEIK
B20: XPA23 light chain T52S (Fab, V domains shown)
VH: EVQLLESGGGLVQPGGSLRLSCAASGFTFSKYFMFWVRQAPGKGLEWVSVISPSGGMTRYADSVKGRFTISRDNSKNTLYLQMNSLRAEDTAVYYCARVGYGGNSDYWGQGTLVTVSS
VL: DIQMTQSPSSVSASVGDRLTIICRASQDINRWLAWYQQTPGNAPKLLIHSASSLQSGVPSRFSGSGSGTDFTLTINSLQPEDFATYYCQQADSFPLTFGGGTKVEIK
B21: XPA23 light chain W32E (Fab, V domains shown)
VH: EVQLLESGGGLVQPGGSLRLSCAASGFTFSKYFMFWVRQAPGKGLEWVSVISPSGGMTRYADSVKGRFTISRDNSKNTLYLQMNSLRAEDTAVYYCARVGYGGNSDYWGQGTLVTVSS
VL: DIQMTQSPSSVSASVGDRLTIICRASQDINRELAWYQQTPGNAPKLLIHSATSLQSGVPSRFSGSGSGTDFTLTINSLQPEDFATYYCQQADSFPLTFGGGTKVEIK

This test has as its target T1, IL-1β (UniProt P01584 117-269).
T1 construct: Antigen immobilised on the Biacore chip
Description: Biacore, periplasmic extract.
For the molecule B1, the “fold difference in affinity vs original” value came to 0.83 fold.
With B2, the binding result is reported as “no binding”.
Take B3: the “fold difference in affinity vs original” value was 1.01 fold.
With B4, the binding result is reported as “no binding”.
Same read-out and setting: next, B5: “no binding”; B6: “no binding”; B7: “no binding”.
Same read-out and setting: to B8 belongs “no binding”.
For B9, the binding result is on record as “no binding”.
Regarding B10, the “fold difference in affinity vs original” value was determined as 0.82 fold.
Regarding B11, the “fold difference in affinity vs original” value was determined as 0.87 fold.
As for B12, the “fold difference in affinity vs original” value stood at 3.37 fold.
B13: the binding result was “no binding”.
As for B14, the binding result is reported as “no binding”.
Consider B15, for which the binding result is on record as “no binding”.
The same measure, in the same setting: to B16 belongs “no binding”.
Same read-out and setting: to B17 belongs “no binding”; to B18, “no binding”.
In the case of B19, the binding result is “no binding”.
As for B20, the “fold difference in affinity vs original” value came out at 0.78 fold.
For the molecule B21, the binding result is given as “no binding”.

(Values after patent US20110118131A1 (published 2011).)
